Reference: article doi:10.1101/2022.06.16.496122

Target: Trypanosoma brucei ADAT3 (full-length, His-tagged) (Trypanosoma brucei)
Assay: cryo-EM structure

“Trypanosoma brucei ADAT2 (full-length, A87G/C117S) (enzyme)” was tested, and the stoichiometry N was 1.
